# How the values were obtained:
# MS2 coat protein = experiment: apparent KD of MS2 coat protein; higher = weaker reporter binding; conditions: Eterna round: R107
# Protocol: (§1)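 RNA-MaP round R107: designed RNA switches with theophylline, tryptophan, arginine or FMN aptamers are transcribed on-chip within common flanks. They are titrated with SNAP-549-labelled MS2 coat protein in RNA-MaP buffer (100 mM Tris pH 7.5, 80 mM KCl, 4 mM MgCl2), without ligand or with the indicated ligand. Median apparent KD per design.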
# [1] = tested on: K4 kissing-loop RNA reporter; experiment: apparent KD of K4 kissing-loop reporter; higher = weaker reporter binding; conditions: Eterna round: R107;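 note: bound reporter read as fluorescence of individual clusters on recovered sequencing chips by microscopy, with normalized cluster intensities fitted with a binding model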
# Protocol: as §1, with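 “a labelled K4 kissing-loop RNA reporter” for “SNAP-549-labelled MS2 coat protein”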
# [2] = input ligand: theophylline 20 uM
# [3] = input ligand: tryptophan 2.4 mM
# [4] = input ligand: theophylline 2 mM
Sequence,apparent KD of MS2 coat protein (MS2 coat protein; input ligand: arginine 13.2 mM),apparent KD of MS2 coat protein (MS2 coat protein; [2]),apparent KD of MS2 coat protein (MS2 coat protein; [3]),apparent KD of MS2 coat protein (MS2 coat protein; input ligand: none),apparent KD of MS2 coat protein (MS2 coat protein; [4]),apparent KD of K4 kissing-loop reporter ([1]; input ligand: FMN 200 uM),apparent KD of K4 kissing-loop reporter ([1]; input ligand: arginine 13.2 mM),apparent KD of K4 kissing-loop reporter ([1]; input ligand: none),"apparent KD of K4 kissing-loop reporter [1, 2]","apparent KD of K4 kissing-loop reporter [1, 3]"
ACCUAAGCCACAGAUACCAGAGUAAUAGGCCAAUUUCAAAACAUGAGGAUCACCCAUGUACUCCCUUGGCAGCUGCGAAUCGAAA [theeternabot_exclusion_MS2_Theo_B_30],11.1 nM,13.6 nM,10.3 nM,,,,,,,
CGGUCGGUCGGCCGGUGAUUAUGGGAUGAAGGAGCGUGGGAAGCUACAGGUAGGUCGCAUCCGAAAGAUGAGGAUCACCCAUCUU [SSArg A #24Alt-Ms2 Mod],24.4 nM,34.4 nM,21.5 nM,30.3 nM,46.4 nM,,,,,
GUCCAAAGGUCGGCCGCCACUGUAGGAUGUGUUCUUUCACAUGAGGAUCACCCAUGUUGUUAUUAUAGGACCGGGAUUGUAGGAC [39MS split4],16.4 nM,32.2 nM,,,21.5 nM,,,,,
GGAUGAAACUGAAGGAGCGAGAUCACAAGAUUGGGUCUAACAUGAGGAUCACCCAUGUAAUCUCAGGUAGGUCGCAGUGUCCCUU [Exclusion Arginine B GF 12],33 nM,42 nM,31.6 nM,26.6 nM,43.5 nM,,,,,
UGUAUGUGAUCUGAUACCAGCUAAUAAGCUUGAGGAUCACCCAAGUGGAGCGGAAACGCAGGCCCUUGGCAGCAGAUCGCAUACU [Denovo 9 #StaticStem #AlternativeMS2],54.6 nM,34.4 nM,70.7 nM,76.4 nM,11.7 nM,,,,,
UAAGCGCGAGGAGACGGAACCAAUCUUGUUCGAGGACCGGUACGGCCGCCACUCGGCGUAAAACAUGAGGAUCACCCAUGUGCAA [theeternabot_exclusion_MS2_Trp_A_18],10.8 nM,15.6 nM,16.4 nM,13.2 nM,16.1 nM,,,,,
GCAUCCUAGUCGGCCGCCACUGCAUGUAGAUACCUGCUACAUGAACAUGAGGAUCACCCAUGUAGCAGGACCGGGACUAGGAUGC [(Trp1)-(MT)''-(MT)'-(Ms2)-(Trp2)_Design1],47.4 nM,63.6 nM,15.5 nM,58.8 nM,69.4 nM,,,,,
ACACGGCAUGAUGGAUCACCUCGUGAAUCACGAGGACCGGUACGGCCGCCACUCGAAAACCGUGACCUGUACGAAAAGUGCAGGA,36 nM,254 nM,38.8 nM,53 nM,758 nM,,,,,
CCGGGCCCGGGCGACCGGGCCCGGACUGAAGGAGCGGGAAUAAACCCAGGUAGGUCGCAGAGAUCCACAUGAGGAUCACCCAUGU [!0.V],31.7 nM,49.6 nM,48.6 nM,30.9 nM,50.9 nM,,,,,
AUGUCGUUGAAUAUAGCGGCUUGGAGUGAUACCAGCAUGAUCCAAUGCCCUUGGCAGCAUAACAUGAGGAUCACCCAUGUUCCAG [SSTheo A #26],32.7 nM,68.7 nM,30.1 nM,,,,,,,
UGGUACAUGAGGAUCACCCAUGUUCCAGAUACCAGAUACCCGGUUAUCCCUUGGCAGCUGGUGUUACAUGAGGAUCACCCAUGUU [Exclusion Theophylline A GF16],23.9 nM,46 nM,37.2 nM,30.4 nM,81.9 nM,,,,,
AUAUUAAUCGGAAGGAGCGGUACAUGAGGAUCACCCAUGUGCUAAGCUAGCAGAUCCCGUUACCAGGUAGGUCGCCGAGUUAUGA [Titeonra],35.6 nM,30.9 nM,23.4 nM,24 nM,29.5 nM,,,,,
GAUCUGUCGGGUGAUACCAGCCUCGGCGCGUCUCGCGCUGAACAUGAGGAUCACCCAUGUGGCCCUUGGCAGCACAUGACAAAUC [Ditere],189 nM,488 nM,598 nM,,,,,,,
AUAACAUGAGGAUCACCCAUGUAAGCAGAUACCAGCUAGGAAACUAGCCCUUGGCAGCUGCAAGGUGAUCCUGCUGCCAAGGUAU [(M1)-(M2)-(T1)-(T2)-(M)'-(T)'_Design7],117 nM,187 nM,209 nM,233 nM,130 nM,,,,,
UUAUGCAGGUCGGCCGCCACUACACACAUGAGGAUCACCCAUGUAGUUACUGGGUGAAGUGGCAGUAGGACCGGGACCUGCACAU [Brourdmod13],52 nM,739 nM,465 nM,479 nM,850 nM,,,,,
AGCAACUAGUCGGCCGCCACUCAUAUUACAUGAGGAUCACCCAUGUAUACAUGGUUGUUAUAUUUGAGGACCGGGACAGUUGCAU [JR_SSTryptoB_Sub018],59 nM,69.9 nM,,,75.7 nM,,,,,
AUACAUGAGGCGGCCGCCACUUUACAUGAGGAUCAACAUGAGGAUCACCCAUGUUACAUGUGGAUAAGGACCGGGCCUCAUGUAU [Same State Tryptophan B 2],51.9 nM,178 nM,91.2 nM,180 nM,313 nM,,,,,
UGGUUUGUGAUGGAUACCAGCAGAGAAAACGUUUAUCCUAACAUGAGGAUCACCCAUGUAUGCCCUUGGCAGCUGUUGUGGGCUA [8.S],27.5 nM,37.4 nM,28.8 nM,,,,,,,
AUUGUGAACCUGAUCGUAUAAUGUAGCGAUACCAGUAUAAUACAUUACCCUUGGCAGCGCGACACAUGAGGAUCACCCAUGUAAG [theeternabot_exclusion_MS2_Theo_A_10],19.6 nM,26.9 nM,23 nM,,,,,,,
UCUGUUGUAUAUGAUACCAGCAGUGAGAGAUGAGAAGUAUAGUGAUGUUAUAUGAGUGAAUGCCCUUGGCAGCGUGUGCGUGUGG [SSTheophylB.aD],,,,,,101 nM,112 nM,94 nM,134 nM,87.5 nM

Sequence,apparent KD of MS2 coat protein (MS2 coat protein; input ligand: arginine 13.2 mM),apparent KD of MS2 coat protein (MS2 coat protein; [2]),apparent KD of MS2 coat protein (MS2 coat protein; [3]),apparent KD of MS2 coat protein (MS2 coat protein; input ligand: none),apparent KD of MS2 coat protein (MS2 coat protein; [4]),apparent KD of K4 kissing-loop reporter ([1]; input ligand: FMN 200 uM),apparent KD of K4 kissing-loop reporter ([1]; input ligand: arginine 13.2 mM),apparent KD of K4 kissing-loop reporter ([1]; input ligand: none),"apparent KD of K4 kissing-loop reporter [1, 2]","apparent KD of K4 kissing-loop reporter [1, 3]"
UUUAUGAGGUCGGCCGCCACUGGAUUUAUGUUUGUUUCGUCUGGAUCAAAGUGAUGUUUUGAGUCCAGGACCGGGACAUUUGUUA [whbob_Ex_Tryp_B_w40],,,,,,85.3 nM,76.3 nM,80.5 nM,76.8 nM,94 nM
AAUUAAUACAGAAGGAGCGUGUUUUUUAAUUUAUUUUCAUGAUCGAGUGAUGUUCGAUAUACACAGGUAGGUCGCUGUAUAUUUA [JR_SSArginiB_Sub008],,,,,,98.8 nM,142 nM,113 nM,139 nM,92.1 nM
GGUAGCAUGGCGGCCGCCACUAUCAGGAGUGAUGUUCCAACGCAGAGCUUCAGCUAGUGUGUAAAUAGGACCGGGCCAUGCUACC,,,,,,414 nM,69.8 nM,512 nM,177 nM,866 nM
AAUACGCCGAAAGGAUAUAUAGAACAUCAAGGGCGCUGACUUUGCUAAAUCACAAGUGAUGUUUGUAUAGAAGGUUCGCAGUCAA [theeternabot_exclusion_KL_FMN_B_30],,,,,,245 nM,427 nM,500 nM,452 nM,437 nM
ACAUUAGCGAGUGAUGUUCGCUAAGACGAAGGAGCGCUCGCGAGAGCAGGUAGGUCGCGUCUAGUGUCACUGUACUAAAUAGUGA [Arg A SS t12],,,,,,159 nM,164 nM,180 nM,183 nM,169 nM
UAUAUAGUGACGGCCGCCACUAUUGUGAUUUAAUUGUUAGAGUGAUGUUUUGUUGUUUGAUUUUGUAGGACCGGGUUAUAUGUUA [vnbbwzmullin],,,,,,1090 nM,851 nM,982 nM,794 nM,839 nM
AUCGUUGUCUGAGGAUAUCGUUUUACUGUAGUGAUGUUACAGAAAAUUCACAUUAUAAUUUCUAUUCGAGAAGGCAGACUACGUA [JR_ExcFMNB_Sub015],,,,,,134 nM,112 nM,120 nM,114 nM,120 nM
CCAUCGCUAUUCGAUACCAGCUCCUUAGUGAUGUUAAGGUUUUACGCUCUGUAGGAGCGAAGCCCUUGGCAGCGAGUAGUGAUGG [#04 K4 Theophylline B Same State],,,,,,1120 nM,832 nM,1060 nM,716 nM,1110 nM
UUAUAUUUUAUAUUUAGUAGAGCUCUAGCUCGAGGACCGGUACGGCCGCCACUCGAGUGAUGUUCGAGUGGAAGAGCUCUACAUU [AK3.1 EXC Tryptophan A],,,,,,114 nM,99.9 nM,110 nM,98.2 nM,435 nM
UGGAUAUAGUGAUGUUAUAUAGAGAUGGAUACCAGCAGAGAGAAUUGCCCUUGGCAGCCGAAAGAAGUAUCAUUAGAGAAGAAUG [ExTheophyl.Ai],,,,,,208 nM,180 nM,253 nM,214 nM,210 nM
GUGGAAUUAUGAAAGUGGUUUUAUAAGGAAGGAGCGGCCGAAAGGCCAGGUAGGUCGCCUAUUGACAGUGAUGUUGUUAUAUGGA [#13],,,,,,105 nM,180 nM,103 nM,168 nM,75 nM
UUGUUUGGUUGAGAGGUUGGGCGAGAUGAUACCAGUAUAGUAUAGUACCCUUGGCAGCAUAGGAGAGAUAUAGUGAUGUUGUAUG [SSTheophA.V],,,,,,424 nM,288 nM,493 nM,372 nM,373 nM
AACAAGGGAUGUCAGUGAUGUUGUACGUCGCGAGGACCGGUACGGCCGCCACUCGUAAUACACAGAUGAGGGUUCUUUCUCUGAU [theeternabot_sameState_KL_Trp_A_49],,,,,,305 nM,179 nM,268 nM,265 nM,228 nM
UUACUGCCCAGUGAUGUUGGGUAUCGGCGGCGAGGACCGGUACGGCCGCCACUCGGCGCACAGGCGGAGUGAUGUUUCGCUUAAA [Same State Tryptophan A GF 12],,,,,,621 nM,539 nM,627 nM,631 nM,186 nM
AGAGUUAAUUAGUCUUUUUUCACAUUAAGUCAGGAUAUCGUAUUUUCGAGAAGGGACACAUGCUAGUGAUGUUAGCUAUUUCUCA [JR_Nu3_ExcFMNA_Sub020],,,,,,60.1 nM,103 nM,67.5 nM,114 nM,59.6 nM
CGCAGUGAUGUUGCGAGUUCAUUCAGGGAAGGAGCGCCACAGAUGGCAGGUAGGUCGCCCACGCAGUGAUGUUGUGUAUUCGGGU [Exclusion Arginine A GF 2],,,,,,202 nM,153 nM,165 nM,170 nM,137 nM
GCCUGUGCGCGAAGGAGCGCCGUGACAGGUUACUGCCUUGGGCAGUGAUGUUGCUCAAUCUGGCAGGUAGGUCGCGUGCACAGGC,,,,,,236 nM,187 nM,201 nM,156 nM,192 nM
AGUGAUGUGGGAAGGAGCGCUAUAAGACUUCAGUGAUGUUGAAGUGCUGGUUUAGUGUUGUAGCAGGUAGGUCGCCUAGAUGUUA [KL-XARG-B11],,,,,,293 nM,239 nM,275 nM,196 nM,218 nM
CAUACGCAUGGAGGAUAUGAGAUUUCUCAUAUUAUUUAAUAUUCUCAGUGAUGUUGAGAAUUAAACUCAGAAGGCCAUGUGUAUG [Ex FMN B 4],,,,,,296 nM,149 nM,164 nM,181 nM,163 nM
